According to paper PMC8569185 (Frontiers in Pharmacology, 2021):

Tests used:
mouse KOR = mouse KOR (Mus musculus, UniProt P33534); test: cell-based; settings: HEK293, read-out: Efficacy cAMP Emax ± SD
mouse KOR-EGFP = mouse KOR-EGFP (mouse, UniProt P33534 1-380); test: cell-based or functional assay
mouse κ-opioid receptor [1] = target: T1, mouse κ-opioid receptor (mouse, UniProt P33534 1-380); test: cell-based or functional assay
mouse κ-opioid receptor [2] = target: T1, mouse κ-opioid receptor; test: radioligand binding; displacement of [3H]-diprenorphine (1 nM) from HEK293 cell membranes stably expressing mouse KOR (6.3–7.6 µg/assay) by peptides (0.1 nM–30 µM); 50 mM Tris-HCl pH 7.4, 10 mM MgCl2, 0.1% BSA; 1.5 h at 37°C; filtration; Ki from IC50 by Cheng and Prusoff; settings: one partner purified

Sequence of mouse KOR-EGFP (P33534 whole entry): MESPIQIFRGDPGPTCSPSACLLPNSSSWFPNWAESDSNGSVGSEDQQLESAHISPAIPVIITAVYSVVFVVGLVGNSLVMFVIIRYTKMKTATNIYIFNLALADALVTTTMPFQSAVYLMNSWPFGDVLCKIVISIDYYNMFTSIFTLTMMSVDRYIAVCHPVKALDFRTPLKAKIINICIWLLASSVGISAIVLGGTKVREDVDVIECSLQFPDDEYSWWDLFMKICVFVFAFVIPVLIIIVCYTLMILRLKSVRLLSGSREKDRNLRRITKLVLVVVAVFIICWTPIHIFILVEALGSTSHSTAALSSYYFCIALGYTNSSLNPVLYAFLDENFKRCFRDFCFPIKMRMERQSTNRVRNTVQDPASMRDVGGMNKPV
Sequence of mouse KOR (P33534 whole entry): as above
T1 sequence (P33534 whole entry): as above

Molecule	Emax at 10 µM (mouse KOR)	extent of β-arrestin-2-Nluc recruitment to KOR-EGFP (BRET) at 10 µM peptide, relative to 10 µM dyn A 1–13 (100%) (mouse KOR-EGFP)	EC50 of inhibition of forskolin-stimulated cAMP accumulation (HTRF cAMP-Gi kit), HEK293 cells stably expressing mouse KOR (mouse κ-opioid receptor [1])	Emax of cAMP inhibition, normalised to 10 µM dyn A 1–13 (100%), HEK293 cells stably expressing mouse KOR (mouse κ-opioid receptor [1])	Ki (mouse κ-opioid receptor [2])
CSCC[C@H](NC(=O)[C@H](Cc1ccccc1)NC(=O)CNC(=O)CNC(=O)[C@@H](N)Cc1ccc(O)cc1)C(=O)N[C@@H](CCCNC(=N)N)C(=O)N[C@@H](CCCNC(=N)N)C(=O)N[C@H](C(=O)O)C(C)C [blenniorphin 1–8]	82.4 ± 9.8%				
H-YGGFMRRVGRPEW-OH [blenniorphin 1–13]	98.5 ± 9.1%				
H-YGGFMRRVGRPEWLVDS-OH [blenniorphin 1–17]	97.5 ± 11%				
YGGFMRRVGRPEWLVDS (numbers count on: the dyn A 1–17-like peptide, not the precursor; Free N-terminus and free C-terminal carboxyl as printed (NH2-...-COOH); also called blenniorphin-17; source: synthetic peptide (Fmoc-based SPPS, RP-HPLC purified)) [blenniorphin 1–17]		~30 % lower than dyn A 1–13	15.2 nM	97.5%	85.8 nM
YGGFMRRV (numbers count on: the dyn A 1–17-like peptide, not the precursor; Free N-terminus and free C-terminal carboxyl as printed (NH2-...-COOH); source: synthetic peptide (Boc-based SPPS, RP-HPLC purified)) [blenniorphin 1–8]		~30 % lower than dyn A 1–13	3.6 nM	82.4%	3.3 nM
YGGFMRRVGRPEW (numbers count on: the dyn A 1–17-like peptide, not the precursor; Free N-terminus and free C-terminal carboxyl as printed (NH2-...-COOH); also called blenniorphin-13; source: synthetic peptide (Boc-based SPPS, RP-HPLC purified)) [blenniorphin 1–13]		~30 % lower than dyn A 1–13	5 nM	98.5%	116 nM
